# Values quoted from earlier work in PMC9238359.
# Columns and labels:
# Test in all cases: ITC
# STX4 soluble (lacks TMD) = STX4 soluble (lacks TMD) (UniProt Q12846)
# STX4 N-terminal peptide = STX4 N-terminal peptide (UniProt Q12846)
# [1] = target: STX4 soluble lacking N-terminal peptide (UniProt Q12846)
substance,measurement,setting,value
Munc18c (from UniProt O00186),Kd,STX4 soluble (lacks TMD),12 nM
same,Kd,STX4 N-terminal peptide,1500 nM
same,Kd,[1],735 nM
